# Source: paper PMC9638971
# How the values were obtained:
# [1] = target: fluorescein-5-maleimide-labelled wild-type lipase A (P. aeruginosa PAO1) (UniProt P26876)
# [2] = target: lipase A (LipA) from Pseudomonas aeruginosa PAO1, wild type (P. aeruginosa PAO1) (UniProt P26876)
# [3] = target: periplasmic chaperone FkpA of P. aeruginosa (P. aeruginosa PAO1); assay: SEC-MALS; isolated chaperones at 2 mg/ml, Superdex 200 Increase 10/300 GL; FkpA, SurA and PpiD in 50 mM KCl, 5 mM MgCl2, 20 mM HEPES-KOH pH 7.4; YfgM in 5 mM glycine, 20 mM NaCl, 5 mM Tris-HCl pH 8.5; Skp in 100 mM NaCl, 20 mM Tris-HCl pH 8.0; LipH in 100 mM NaCl, 200 µM TCEP, 50 mM Tris-HCl pH 8.0
# [4] = target: fluorescein-5-maleimide-labelled wild-type lipase A (P. aeruginosa PAO1) (UniProt P26876); remark: listed apart in the source
# [5] = target: fluorescein-5-maleimide-labelled lipase A mutant LipA_(F144E) (P. aeruginosa PAO1) (UniProt P26876); assay: MST; FM-labelled LipA_(F144E) kept constant, Skp titrated (monomer concentrations); TGCG buffer with 0.05% Tween 20; 15 min at 22°C; Monolith NT.115
# [6] = target: periplasmic chaperone Skp of P. aeruginosa (P. aeruginosa PAO1); assay: SEC-MALS; isolated chaperones at 2 mg/ml, Superdex 200 Increase 10/300 GL; FkpA, SurA and PpiD in 50 mM KCl, 5 mM MgCl2, 20 mM HEPES-KOH pH 7.4; YfgM in 5 mM glycine, 20 mM NaCl, 5 mM Tris-HCl pH 8.5; Skp in 100 mM NaCl, 20 mM Tris-HCl pH 8.0; LipH in 100 mM NaCl, 200 µM TCEP, 50 mM Tris-HCl pH 8.0
# [7] = target: lipase A mutant LipA_(F144E) (P. aeruginosa PAO1) (UniProt P26876); assay: SEC-MALS; LipA_(F144E):Skp mixture (molar ratio 1:3) compared with Skp3 alone; SDS-PAGE and densitometry of the peak fractions
# [8] = target: lipase A (LipA) from Pseudomonas aeruginosa PAO1, wild type (P. aeruginosa PAO1) (UniProt P26876); remark: listed apart in the source
# [9] = target: periplasmic chaperone Skp of P. aeruginosa (P. aeruginosa PAO1); assay: SAXS; Skp at 1.20 mg/ml, 15 °C; ab initio reconstitution with P3 symmetry (GASBOR)
substance,measurement,setting,value
lipase-specific foldase LipH lacking the TMD (domain or fragment),"soluble fraction of LipA in the sedimentation assay, 150 mM NaCl, LipA:LipH molar ratio 1:1",[1],> 80%
same,"inhibition of pNPB hydrolysis by wild-type LipA with LipH and Skp3 added simultaneously (LipA:LipH:chaperone 1:1:5, 50 mM NaCl)",[2],< 10%
periplasmic chaperone FkpA of P. aeruginosa (natural protein),stoichiometry N,[3],2
periplasmic chaperone Skp of P. aeruginosa (natural protein),"soluble fraction of LipA in the sedimentation assay, 150 mM NaCl, 0.5 µM LipA and 5 µM Skp3",[1],66%
same,"soluble fraction of LipA in the sedimentation assay at LipA:Skp3 molar ratios 1:10, 1:3 and 1:1; value at 1:10 and 1:3, dropped dramatically at 1:1",[4],> 70%
same,KD of the first (high-affinity) binding mode,[5],0.02 µM
same,KD of the second (low-affinity) binding mode,[5],2 µM
same,stoichiometry N,[6],3
same,LipA:Skp3 ratio by densitometry of the peak fractions (Skp3 per LipA),[7],3
same,stoichiometry N (Skp3 per LipA),[7],2
same,"decrease in ThT fluorescence of LipA aggregates in the presence of Skp3 (0.5 µM LipA, 5 µM Skp3)",[8],75%
same,stoichiometry N,[9],3
